Test results as given in patent publication US20190359732A1.

Molecular target: antigen CD3 (Biacore analysis) (Homo sapiens (Human)) (UniProt P07766)
Experiment: SPR (Biacore)

Kd: 64.6 nM
koff: 0.109 s⁻¹
kon: 1.68e+06 M⁻¹ s⁻¹
B1: huOKT3 IgG1-aGlyco (antibody, V domains shown)
VH: QVQLVQSGGGVVQPGRSLRLSCKASGYTFTRYTMHWVRQAPGKGLEWIGYINPSRGYTNYNQKFKDRFTISRDNSKNTAFLQMDSLRPEDTGVYFCARYYDDHYCLDYWGQGTPVTVSS
VL: DIQMTQSPSSLSASVGDRVTITCSASSSVSYMNWYQQTPGKAPKRWIYDTSKLASGVPSRFSGSGSGTDYTFTISSLQPEDIATYYCQQWSSNPFTFGQGTKLQITR
